Laboratory results from PMC5887438 (Nucleic Acids Research, 2018).

Target: C. crescentus σ70 domain 2 (σ70_2, residues 128-487) (Caulobacter crescentus, UniProt P52324 127-486)
Experiment: crystal structure

Sequence of C. crescentus σ70 domain 2 (σ70_2, residues 128-487) (P52324 127-486): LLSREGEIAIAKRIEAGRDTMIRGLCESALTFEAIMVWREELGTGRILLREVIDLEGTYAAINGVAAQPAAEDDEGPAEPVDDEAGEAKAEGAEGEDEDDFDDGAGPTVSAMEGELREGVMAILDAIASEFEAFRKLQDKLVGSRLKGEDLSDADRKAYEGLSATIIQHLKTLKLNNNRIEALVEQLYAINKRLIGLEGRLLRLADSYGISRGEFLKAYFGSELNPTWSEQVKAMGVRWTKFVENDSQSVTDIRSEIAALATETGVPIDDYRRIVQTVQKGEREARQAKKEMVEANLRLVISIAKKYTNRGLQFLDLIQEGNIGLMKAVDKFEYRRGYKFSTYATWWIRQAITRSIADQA

B1: C. crescentus GcrA-SID (residues 88-173) (domain or fragment, Caulobacter crescentus, UniProt A0A0H3C9J4 88-173, looked up)
chain: VPVAAAPAPLPAFRHEEPGSATVLTLGAHMCKWPIGDPSSEGFTFCGRRSSEGPYCVEHARVAYQPQQTKKKSGGAELARSLRRYI
stoichiometry N: 1
